Assay [1] addresses T1, hCD22 fragment Bin 7, IVR7 (aa561-668), displayed on yeast cells (human, UniProt P20273 580-687).
T1 construct: range 561-668; Range is counted on the mature ECD, not on the UniProt entry; on P20273 it would be 580-687 (my arithmetic); also called CD22 Sub-Domain 7; not shown: Aga2-HA display fusion partner of vector pPNL6; MYC tag
T1 sequence (looked up): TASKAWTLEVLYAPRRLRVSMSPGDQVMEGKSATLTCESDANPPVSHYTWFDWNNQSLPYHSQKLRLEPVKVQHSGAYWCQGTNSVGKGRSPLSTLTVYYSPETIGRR
Nature of the assay: yeast display cell ELISA, biotinylated sdAb 250 nM. The procedure:
(§1) The YSD vector (pPNL6) was from The Pacific Northwest National Laboratory, USA. […] The HRP activity was assayed with substrate TMB (tetramethyl benzidine) according to the manufacture’s conditions and read at OD₄₅₀.
(§2) The wells that gave rise to OD₄₅₀ above 0.25 were highlighted, indicating significant antibody-antigen interactions. All the sdAbs tested except hCd22_1ug-14 were assigned to specific Bin(s).

Assay [2] concerns the target T1, hCD22 fragment Bin 7, IVR7 (aa561-668), …. Nature of the assay: yeast display cell ELISA, native cells. As for the experimental part: as §1
(§3) Table 7 depicts the assessment of the nature of the epitopes of CD22 sdAbs to determine if the epitopes for the sdAbs are continuous (linear) or non-continuous (conformational). […] The binding of each sdAb to native and denatured CD22 fragments was measured as OD₄₅₀, and the ratio of the binding to denatured CD22 to non-denatured CD22 was calculated, with the ratio ≥ 0.5 indicative linear (L), and the ratio < 0.5 indicative of conformational (C) epitopes.
In general terms: ELISA stands for enzyme-linked immunosorbent assay.

Assay [3] shares this target. Nature of the assay: yeast display cell ELISA, OD on denatured over non-denatured CD22 fragment. As for the experimental part: as §1, §3
Assay [4] concerns the target T2, recombinant extracellular domain of the predominant human CD22-beta isoform (CD22-ECD) (human, UniProt P20273 20-687, CHO-expressed glycoprotein. Capture on an SA chip implies biotinylation, but the patent does not state it for SPR.).
T2 construct: Expressed in CHO-3E7 cells, IMAC and SEC purified, monomeric fraction; Results say it was immobilized onto a CM5 dextran chip; also called human CD22-ECD; hCD22 ecto-domain
T2 sequence: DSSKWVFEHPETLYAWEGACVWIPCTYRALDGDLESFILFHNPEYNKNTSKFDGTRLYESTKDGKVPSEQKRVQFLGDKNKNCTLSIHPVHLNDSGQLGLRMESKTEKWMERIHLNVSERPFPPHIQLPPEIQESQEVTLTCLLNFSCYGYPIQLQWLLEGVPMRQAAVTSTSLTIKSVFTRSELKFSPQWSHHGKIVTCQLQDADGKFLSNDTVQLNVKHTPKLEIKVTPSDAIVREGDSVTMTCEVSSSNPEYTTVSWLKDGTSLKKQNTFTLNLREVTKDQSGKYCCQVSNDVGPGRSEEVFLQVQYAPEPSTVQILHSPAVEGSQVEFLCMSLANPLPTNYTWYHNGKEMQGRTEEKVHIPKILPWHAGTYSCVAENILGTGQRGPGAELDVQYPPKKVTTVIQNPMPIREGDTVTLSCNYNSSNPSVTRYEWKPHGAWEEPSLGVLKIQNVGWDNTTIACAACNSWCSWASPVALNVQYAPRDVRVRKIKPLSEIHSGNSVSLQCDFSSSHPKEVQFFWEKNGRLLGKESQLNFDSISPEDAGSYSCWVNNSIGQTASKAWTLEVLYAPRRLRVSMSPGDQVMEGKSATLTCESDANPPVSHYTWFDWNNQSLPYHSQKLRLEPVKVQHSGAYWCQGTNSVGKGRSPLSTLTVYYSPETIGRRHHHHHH
Kind of assay: SPR, Biacore T200, VHH over immobilized CD22-ECD. As for the experimental part: For surface Plasmon resonance, 21 selected VHHs were passed though size exclusion columns, superdex 75 (GE Healthcare), respectively, in 10 mM HEPES, pH 7.4, containing 150 mM NaCl, 3 mM EDTA, monomeric sdAb fractions were collected and protein concentrations were determined by measuring absorbance at 280 nm (A280). Analysis were performed with Biacore T200 instrument (GE Healthcare). All measurements were carried out at 25° C. in 10 mM HEPES, pH 7.4, containing 150 mM NaCl, 3 mM EDTA and 0.005% surfactant P20 (GE Healthcare). Approximately 1919 RUs of the recombinant monomeric CD22-ECD (obtained after SEC purification of the CD22-ECD) were captured on SA sensor chip (GE Healthcare) at a flow rate of 5 uL/min. Various concentration of the monomeric VHHs were injected over CD22-ECD surface, respectively using an SA surface as a reference at a flow rate of 40 µL/min. Surfaces were generated by washing with running buffer. Data were analysed with BIAevaluation 4.1 software.
The monomeric fraction of all 21 VHHs were used for SPR experiment where the human CD22-ECD was immobilized onto the CM5 dextran chip and various VHH concentration (0.6-400 nM) were passed over the sensor chip. […] All of the data collected fit a 1:1 binding model.
On the technique in general: Surface plasmon resonance follows binding to a sensor surface in real time, without labels.

Assay [5] deals with T1, hCD22 fragment Bin 7, IVR7 (aa561-668), …. Nature of the assay: yeast display cell ELISA. As for the experimental part: as §1, §2
In assay [6] the target is T3, hCD22 fragment Bin 6, IVR6 (aa476-575), displayed on yeast cells (human, UniProt P20273 495-594).
T3 construct: range 476-575; Range is counted on the mature ECD, not on the UniProt entry; on P20273 it would be 495-594 (my arithmetic); also called CD22 Sub-Domain 6; not shown: Aga2-HA display fusion partner of vector pPNL6; MYC tag
T3 sequence (looked up): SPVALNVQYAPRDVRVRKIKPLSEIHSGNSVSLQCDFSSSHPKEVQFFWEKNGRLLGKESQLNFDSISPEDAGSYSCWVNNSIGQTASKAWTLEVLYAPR
Kind of assay: yeast display cell ELISA, biotinylated sdAb 250 nM. As for the experimental part: as §1, §2

Assay [7] concerns the target T3, hCD22 fragment Bin 6, IVR6 (aa476-575), …. Kind of assay: yeast display cell ELISA, native cells. As for the experimental part: as §1, §3
The target is the same in assay [8]. Nature of the assay: yeast display cell ELISA, OD on denatured over non-denatured CD22 fragment. As for the experimental part: as §1, §3

B1: hCD22pas-24 (VHH)
VHH: QVQLVESGGGLVQAGGSLRLSCSASGITSSINSMGWHRQAPGKQRELVASIGRGGSGSTKYADSGKGRFLISRDNNKNILFLEMNSLKPEDTADYYCLEVTTDLSSYWGRGTQVTVSS
modifications: single biotin at the VHH C-terminal (biotinylation signal sequence)
notes: llama VHH, expressed in E. coli TG1, IMAC purified, monomeric SEC fraction; also called VHH # 26; 8-hCD22 pas-24
In assay [1], B1 came in with an OD450 of 2.89 OD450. The “Non denatured CD22 OD” value in assay [2] amounted to 3.5 OD450. Also, the “CD22 Ratio (D/ND)” value in assay [3] came to 0.603. Further, in assay [4], the Kd stood at 26 nM, the koff was determined as 0.00386 s⁻¹ and the kon is 148000 M⁻¹ s⁻¹.

B2: hCD22pas-32 (VHH)
VHH: QVQLVESGGGLVQAGGSLRLSCAVSGRIFRSYVLGWFRQAPGKERELVARIGWSDTYYADSVKGRFTISRDNAKNTVDLQMNSLKPEDTAVYYCAANSPPYGPQRDEFGYWGQGTQVTVSS
modifications: single biotin at the VHH C-terminal (biotinylation signal sequence)
notes: llama VHH, expressed in E. coli TG1, IMAC purified, monomeric SEC fraction; also called VHH # 15; 6-hCD22 pas-32
In the case of B2, the binding result in assay [5] is on record as “no binding (tested: OD450 not above 0.25; sdAb 250 nM)”. In assay [4], the Kd was found to be 23.4 nM, the koff stood at 0.00369 s⁻¹ and the kon stood at 158000 M⁻¹ s⁻¹.

B3: hCD221ug-80 (VHH)
VHH: QVQLVESGGGLVQPGGSLRLSCTFSGFTLDYYVMVWFRQAPGKEREAVSCITSDGVTYYADSVKGRFTISRDNAKNTVYLQMNRVKPEDTAVYYCAVDKPFYDGGIQYTCPVDFDSWGQGAQVTVSS
modifications: single biotin at the VHH C-terminal (biotinylation signal sequence)
notes: llama VHH, expressed in E. coli TG1, IMAC purified, monomeric SEC fraction; also called VHH # 1; 2-hCD22 1ug-80
As for B3, the OD450 in assay [6] worked out at 2.25 OD450. Also, the “Non denatured CD22 OD” value in assay [7] was 2.57 OD450. Moreover, in assay [8], the “CD22 Ratio (D/ND)” value stood at 1.02. In addition, in assay [4], the Kd amounted to 30.3 nM, the koff turned out to be 0.000633 s⁻¹ and the kon was 20900 M⁻¹ s⁻¹.

B4: hCD22pas-64 (VHH)
VHH: QVQLVESGGGLVQAGGSLRLSCAASGSTFSLNTMAWYRQAPGNQREYVAAASSDGYTNYADSVRGRFTISRDNDKNTMYLQMNSLRPEDTAVYYCTWGTGRFADYIYWGQGTQVTVSS
modifications: single biotin at the VHH C-terminal (biotinylation signal sequence)
notes: llama VHH, expressed in E. coli TG1, IMAC purified, monomeric SEC fraction; also called VHH # 25; 7-hCD22 pas-64
As for B4, the OD450 in assay [6] amounted to 1.38 OD450. The binding result in assay [5] is “no binding (tested: OD450 not above 0.25; sdAb 250 nM)”. Besides, the “Non denatured CD22 OD” value in assay [7] was determined as 2.98 OD450. Further, in assay [8], the “CD22 Ratio (D/ND)” value was 0.684. For the same molecule, in assay [4], the Kd is 250 nM, the koff was found to be 0.0271 s⁻¹ and the kon came out at 108000 M⁻¹ s⁻¹.

B5: hCD221ug-13 (VHH)
VHH: QVQLVESGGGLVQAGDSLRLSCAGSGGSFSSVTMAWFRQAPGKDREFVAAITWSSPSTYYADSVKGRFTISRDNAKNTVYLQMNSLKPEDTAVYYCAGGRTGRGTSADTDEYNYWGQGTQVTVSS
modifications: single biotin at the VHH C-terminal (biotinylation signal sequence)
notes: llama VHH, expressed in E. coli TG1, IMAC purified, monomeric SEC fraction; also called VHH # 21; 1-hCD22 1ug-13
As to B5, the OD450 in assay [6] turned out to be 0.433 OD450. Further, the “Non denatured CD22 OD” value in assay [7] was found to be 0.453 OD450. Also, in assay [8], the “CD22 Ratio (D/ND)” value came out at 0.6. In assay [4], the Kd stood at 2.91 nM, the koff is 0.000675 s⁻¹ and the kon came out at 232000 M⁻¹ s⁻¹.

B6: hCD221ug-10 (VHH)
VHH: QVQLVESGGGLVQAGGSLSVSCTASESTFSIMMGWFRQAPGKQREMVAVINSAGSTNYADSAEGRFTISRDLAKKTVSLQMNSLKPEDTAVYYCYVDGYFGQGTQVTVSS
modifications: single biotin at the VHH C-terminal (biotinylation signal sequence)
notes: llama VHH, expressed in E. coli TG1, IMAC purified, monomeric SEC fraction; also called VHH # 23; 5-hCD22 1ug-10
As for B6, the OD450 in assay [1] came to 0.75 OD450. Moreover, the “Non denatured CD22 OD” value in assay [2] came out at 3.5 OD450. Further, the “CD22 Ratio (D/ND)” value in assay [3] was determined as 0.091. In assay [4], the Kd is 3.68 nM, the koff was 0.00176 s⁻¹ and the kon is 477000 M⁻¹ s⁻¹.

B7: hCD221ug-61 (VHH)
VHH: QVQLVESGGGLVQAGGSLRLSCAASMSSFSQYVMYWYRQAPGKQRELVATITSYSNTNYADSVKGRFTISRDNAKSIAYLQMDSLKPEDTAVYYCNAQYGSTFIRNHWDDWGQGTQVTVSS
modifications: single biotin at the VHH C-terminal (biotinylation signal sequence)
notes: llama VHH, expressed in E. coli TG1, IMAC purified, monomeric SEC fraction; also called VHH # 14; 3-hCD22 1ug-61
In assay [1], B7 returned an OD450 of 2.84 OD450. Besides, the “Non denatured CD22 OD” value in assay [2] was 3.5 OD450. Further, the “CD22 Ratio (D/ND)” value in assay [3] turned out to be 0.665. Besides, in assay [4], the Kd came to 0.546 nM, the koff turned out to be 0.000681 s⁻¹ and the kon stood at 1.25e+06 M⁻¹ s⁻¹.

B8: hCD221ug-36 (VHH)
VHH: EVQLVDSGGGLVQAGGSLRVSCEASGITFSRAAMGWYRQRPGKERERVAVVNSDSSTIYADSVKGRFTISRDNAKNTVYLQMNSLEPEDTAVYYCWSPGFGSYWGQGTQVTVSS
modifications: single biotin at the VHH C-terminal (biotinylation signal sequence)
notes: llama VHH, expressed in E. coli TG1, IMAC purified, monomeric SEC fraction; also called VHH # 22; 4-hCD22 1ug-36
B8 returned an OD450 in assay [6] of 2.97 OD450. Besides, the binding result in assay [5] is listed as “no binding (tested: OD450 not above 0.25; sdAb 250 nM)”. Further, in assay [7], the “Non denatured CD22 OD” value worked out at 3.5 OD450. Further, the “CD22 Ratio (D/ND)” value in assay [8] turned out to be 1. For the same molecule, in assay [4], the Kd came out at 9.59 nM, the koff worked out at 0.00114 s⁻¹ and the kon was determined as 119000 M⁻¹ s⁻¹.

The Kd is the equilibrium constant for the complex coming apart. As usually defined, the koff is the first-order rate constant of dissociation. What is called kon is a measure of how fast the partners come together.

The values are drawn from US20230265185A1 (NATIONAL RESEARCH COUNCIL OF CANADA, published 2023).
